One block for each binder: values may come before it.
B9: FICD^S288C-H363A-C421S-TMR (dimerisation-sensitive fluorescent probe) (domain or fragment, human, UniProt Q9BVA6 104-445, looked up)
chain: LEARAALNQALEMKRQGKREKAQKLFMHALKMDPDFVDALTEFGIFSEEDKDIIQADYLYTRALTISPYHEKALVNRDRTLPLVEEIDQRYFSIIDSKVKKVMSIPKGNSALRRVMEETYYHHIYHTVAIEGNTLTLSEIRHILETRYAVPGKSLEEQNEVIGMHAAMKYINTTLVSRIGSVTICDVLEIHRRVLGYVDPVEAGRFRTTQVLVGHHIPPHPQDVEKQMQEFVQWLNSEEAMNLHPVEFAALAHYKLVYIAPFIDGNGRTSRLLMNLILMQAGYPPITIRKEQRSDYYHVLEAANEGDVRPFIRFIAKSTETTLDTLLFATTEYSVALPEAQP
modifications: tetramethylrhodamine (TMR-5-maleimide) on Cys288 (labelling efficiency 41%); unlabelled cysteines quenched with NEM
notes: FICD (HYPE), human, residues 104-445; also called FICD-TMR; UK 2473

Assays:
[1] = target: B9; experiment: other fluorescence titration; 2.5 nM FICD^S288C-H363A-C421S-TMR with unlabelled FICD or nucleotide as titrant in HKTx, 45 min at 10°C; de-quenching of TMR fluorescence (excitation 535 nm, emission 585 nm); conditions: both partners purified
[2] = target: T1, biotinylated-AviTag-haBiP^T229A-V461F (Chinese hamster, UniProt G3I8R9 19-654, T229A | V461F, biotin on the AviTag); experiment: BLI; biotinylated BiP^T229A-V461F immobilised on streptavidin biosensors and saturated with 2 mM ATP; FICD His363Ala variants at 250 nM, association or dissociation without nucleotide or with ATP 8 mM or ADP 2 mM; HKM plus 0.05% Triton X-100, 30°C; conditions: both partners purified
T1 construct: BiP, Chinese hamster; Immobilised nucleotide-free and, where indicated, saturated with 2 mM ATP on the sensor; also called BiP^T229A-V461F:Apo; BiP:ATP
T1 sequence (G3I8R9 19-654 T229A/V461F): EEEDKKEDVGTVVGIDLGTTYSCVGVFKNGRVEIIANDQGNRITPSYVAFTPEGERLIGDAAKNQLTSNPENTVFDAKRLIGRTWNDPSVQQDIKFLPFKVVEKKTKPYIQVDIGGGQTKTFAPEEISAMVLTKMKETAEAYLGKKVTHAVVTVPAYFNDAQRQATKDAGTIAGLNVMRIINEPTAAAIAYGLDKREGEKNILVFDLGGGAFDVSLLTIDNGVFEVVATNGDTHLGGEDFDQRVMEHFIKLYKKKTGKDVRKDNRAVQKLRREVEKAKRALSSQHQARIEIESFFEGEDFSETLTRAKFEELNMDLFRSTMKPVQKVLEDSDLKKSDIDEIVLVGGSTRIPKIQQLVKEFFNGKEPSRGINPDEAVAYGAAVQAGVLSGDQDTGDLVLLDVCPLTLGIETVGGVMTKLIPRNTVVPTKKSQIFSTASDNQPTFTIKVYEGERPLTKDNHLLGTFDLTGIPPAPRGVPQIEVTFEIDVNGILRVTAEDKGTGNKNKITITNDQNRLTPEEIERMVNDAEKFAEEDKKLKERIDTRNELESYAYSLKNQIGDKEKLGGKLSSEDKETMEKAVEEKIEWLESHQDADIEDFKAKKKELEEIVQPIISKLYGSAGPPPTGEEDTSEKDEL

[3] = target: T2, biotinylated-AviTag-FICD^H363A (human, UniProt Q9BVA6 104-445, H363A, biotin on the AviTag); experiment: BLI; 3 nM biotinylated-AviTag-FICD^H363A incubated 10 min at 25°C with 300 nM FICD^H363A, hetero-labelled dimers loaded on streptavidin biosensors; dissociation into HKTx with or without 5 mM nucleotide; signal of sensors incubated with FICD^L258D-H363A subtracted; dimer to monomers; conditions: both partners purified
T2 construct: FICD (HYPE), human, residues 104-445 (the limits are those told for all purified FICD proteins); also called N-terminally biotinylated FICD^H363A; UK 2422; not shown: AviTag, N-terminal, kept
T2 sequence (looked up): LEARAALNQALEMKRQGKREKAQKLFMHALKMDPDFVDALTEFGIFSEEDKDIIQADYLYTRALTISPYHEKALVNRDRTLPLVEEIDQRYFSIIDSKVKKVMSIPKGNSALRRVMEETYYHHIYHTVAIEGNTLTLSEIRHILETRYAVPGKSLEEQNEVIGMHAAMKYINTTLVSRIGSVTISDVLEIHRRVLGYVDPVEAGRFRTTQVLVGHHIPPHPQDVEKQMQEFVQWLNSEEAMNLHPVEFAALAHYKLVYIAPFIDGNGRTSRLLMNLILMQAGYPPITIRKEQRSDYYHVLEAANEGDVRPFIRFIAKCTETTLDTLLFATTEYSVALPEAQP

[4] = target: the molecule itself; experiment: SEC; analytical SEC-3 HPLC column in HKMC (50 mM HEPES-KOH pH 7.4, 150 mM KCl, 10 mM MgCl2, 1 mM CaCl2), 25°C; proteins at 20 μM, or at 0.2-50 μM after 16 h at 25°C; approximate Kd from elution peak time against concentration; dimer to monomers
[5] = target: the molecule itself; experiment: crystal structure; sitting drop vapour diffusion, protein at 9 mg/ml in 10 mM Tris-HCl pH 8.0, 150 mM NaCl, 1 mM TCEP, with 10 mM MgATP or MgAMPPNP where applicable
[6] = target: the molecule itself; experiment: other fluorescence titration; 2.5 nM FICD^S288C-H363A-C421S-TMR with unlabelled FICD or nucleotide as titrant in HKTx, 45 min at 10°C; de-quenching of TMR fluorescence (excitation 535 nm, emission 585 nm)

binding result [1]: binds | binding result [2]: binds | fold increase of the dimer dissociation rate with 5 mM ATP against no nucleotide [3]: 3 fold
B1: catalytically inactive, dimeric FICD^H363A (residues 104-445) (domain or fragment, human, UniProt Q9BVA6 104-445, looked up)
chain: LEARAALNQALEMKRQGKREKAQKLFMHALKMDPDFVDALTEFGIFSEEDKDIIQADYLYTRALTISPYHEKALVNRDRTLPLVEEIDQRYFSIIDSKVKKVMSIPKGNSALRRVMEETYYHHIYHTVAIEGNTLTLSEIRHILETRYAVPGKSLEEQNEVIGMHAAMKYINTTLVSRIGSVTISDVLEIHRRVLGYVDPVEAGRFRTTQVLVGHHIPPHPQDVEKQMQEFVQWLNSEEAMNLHPVEFAALAHYKLVYIAPFIDGNGRTSRLLMNLILMQAGYPPITIRKEQRSDYYHVLEAANEGDVRPFIRFIAKCTETTLDTLLFATTEYSVALPEAQP
notes: FICD (HYPE), human, residues 104-445; Dimeric as analyte on BiP; in the rows with m14 and m15 one of its protomers pairs with one labelled protomer; also called dFICD^H363A; UK 1954; source: E. coli T7 Express lysY/Iq, purified (Ni-NTA, on-column Ulp1 cleavage, anion exchange, SEC)

B2: FICD^E242A (residues 104-445) (domain or fragment, human, UniProt Q9BVA6 104-445, looked up)
chain: LEARAALNQALEMKRQGKREKAQKLFMHALKMDPDFVDALTEFGIFSEEDKDIIQADYLYTRALTISPYHEKALVNRDRTLPLVEEIDQRYFSIIDSKVKKVMSIPKGNSALRRVMEETYYHHIYHTVAIEGNTLTLSAIRHILETRYAVPGKSLEEQNEVIGMHAAMKYINTTLVSRIGSVTISDVLEIHRRVLGYVDPVEAGRFRTTQVLVGHHIPPHPQDVEKQMQEFVQWLNSEEAMNLHPVEFAALAHYKLVYIHPFIDGNGRTSRLLMNLILMQAGYPPITIRKEQRSDYYHVLEAANEGDVRPFIRFIAKCTETTLDTLLFATTEYSVALPEAQP
notes: FICD (HYPE), human, residues 104-445; also called dimer relay mutant; source: E. coli T7 Express lysY/Iq, purified (Ni-NTA, on-column Ulp1 cleavage, anion exchange, SEC)
Kd [4]: < 0.4 µM

B3: non-oxidised FICD^A252C-C421S (residues 104-445) (domain or fragment, human, UniProt Q9BVA6 104-445, looked up)
chain: LEARAALNQALEMKRQGKREKAQKLFMHALKMDPDFVDALTEFGIFSEEDKDIIQADYLYTRALTISPYHEKALVNRDRTLPLVEEIDQRYFSIIDSKVKKVMSIPKGNSALRRVMEETYYHHIYHTVAIEGNTLTLSEIRHILETRYCVPGKSLEEQNEVIGMHAAMKYINTTLVSRIGSVTISDVLEIHRRVLGYVDPVEAGRFRTTQVLVGHHIPPHPQDVEKQMQEFVQWLNSEEAMNLHPVEFAALAHYKLVYIHPFIDGNGRTSRLLMNLILMQAGYPPITIRKEQRSDYYHVLEAANEGDVRPFIRFIAKSTETTLDTLLFATTEYSVALPEAQP
notes: FICD (HYPE), human, residues 104-445; also called non-disulphide-bonded FICD^A252C-C421S; UK 2219; source: E. coli T7 Express lysY/Iq, purified; a separate preparation not subjected to oxidation with glutathione
binding result [4]: binds

B4: wild-type FICD (amino acid residues 104-445) (domain or fragment, human, UniProt Q9BVA6 104-445, looked up)
chain: LEARAALNQALEMKRQGKREKAQKLFMHALKMDPDFVDALTEFGIFSEEDKDIIQADYLYTRALTISPYHEKALVNRDRTLPLVEEIDQRYFSIIDSKVKKVMSIPKGNSALRRVMEETYYHHIYHTVAIEGNTLTLSEIRHILETRYAVPGKSLEEQNEVIGMHAAMKYINTTLVSRIGSVTISDVLEIHRRVLGYVDPVEAGRFRTTQVLVGHHIPPHPQDVEKQMQEFVQWLNSEEAMNLHPVEFAALAHYKLVYIHPFIDGNGRTSRLLMNLILMQAGYPPITIRKEQRSDYYHVLEAANEGDVRPFIRFIAKCTETTLDTLLFATTEYSVALPEAQP
notes: FICD (HYPE), human, residues 104-445; Homodimer in solution; its rows measure this dimerisation, so copies is left empty; also called HYPE; dFICD; source: E. coli T7 Express lysY/Iq, purified (Ni-NTA, on-column Ulp1 cleavage, anion exchange, SEC)
stoichiometry N [4]: 2 | stoichiometry N [5]: 2 molecules in the biological unit

B5: cysteine-free FICD^C421S (residues 104-445) (domain or fragment, human, UniProt Q9BVA6 104-445, looked up)
chain: LEARAALNQALEMKRQGKREKAQKLFMHALKMDPDFVDALTEFGIFSEEDKDIIQADYLYTRALTISPYHEKALVNRDRTLPLVEEIDQRYFSIIDSKVKKVMSIPKGNSALRRVMEETYYHHIYHTVAIEGNTLTLSEIRHILETRYAVPGKSLEEQNEVIGMHAAMKYINTTLVSRIGSVTISDVLEIHRRVLGYVDPVEAGRFRTTQVLVGHHIPPHPQDVEKQMQEFVQWLNSEEAMNLHPVEFAALAHYKLVYIHPFIDGNGRTSRLLMNLILMQAGYPPITIRKEQRSDYYHVLEAANEGDVRPFIRFIAKSTETTLDTLLFATTEYSVALPEAQP
notes: FICD (HYPE), human, residues 104-445; also called UK 2161; source: E. coli T7 Express lysY/Iq, purified by the protocol of the disulphide-linked dimers
binding result [4]: binds

B6: FICD^K256S (residues 104-445) (domain or fragment, human, UniProt Q9BVA6 104-445, looked up)
chain: LEARAALNQALEMKRQGKREKAQKLFMHALKMDPDFVDALTEFGIFSEEDKDIIQADYLYTRALTISPYHEKALVNRDRTLPLVEEIDQRYFSIIDSKVKKVMSIPKGNSALRRVMEETYYHHIYHTVAIEGNTLTLSEIRHILETRYAVPGSSLEEQNEVIGMHAAMKYINTTLVSRIGSVTISDVLEIHRRVLGYVDPVEAGRFRTTQVLVGHHIPPHPQDVEKQMQEFVQWLNSEEAMNLHPVEFAALAHYKLVYIHPFIDGNGRTSRLLMNLILMQAGYPPITIRKEQRSDYYHVLEAANEGDVRPFIRFIAKCTETTLDTLLFATTEYSVALPEAQP
notes: FICD (HYPE), human, residues 104-445; also called Lys256Ser; dimer relay mutant; source: E. coli T7 Express lysY/Iq, purified (Ni-NTA, on-column Ulp1 cleavage, anion exchange, SEC)
Kd [4]: < 0.4 µM | stoichiometry N [5]: 2 molecules in the biological unit

B7: FICD^K256A (residues 104-445) (domain or fragment, human, UniProt Q9BVA6 104-445, looked up)
chain: LEARAALNQALEMKRQGKREKAQKLFMHALKMDPDFVDALTEFGIFSEEDKDIIQADYLYTRALTISPYHEKALVNRDRTLPLVEEIDQRYFSIIDSKVKKVMSIPKGNSALRRVMEETYYHHIYHTVAIEGNTLTLSEIRHILETRYAVPGASLEEQNEVIGMHAAMKYINTTLVSRIGSVTISDVLEIHRRVLGYVDPVEAGRFRTTQVLVGHHIPPHPQDVEKQMQEFVQWLNSEEAMNLHPVEFAALAHYKLVYIHPFIDGNGRTSRLLMNLILMQAGYPPITIRKEQRSDYYHVLEAANEGDVRPFIRFIAKCTETTLDTLLFATTEYSVALPEAQP
notes: FICD (HYPE), human, residues 104-445; also called dimeric dimer relay mutant FICD^K256A; source: E. coli T7 Express lysY/Iq, purified; gel-filtered into 10 mM Tris-HCl pH 8.0, 150 mM NaCl, 1 mM TCEP for crystallisation
stoichiometry N [5]: 2 molecules in the biological unit

B8: FICD^G299S (residues 104-445) (domain or fragment, human, UniProt Q9BVA6 104-445, looked up)
chain: LEARAALNQALEMKRQGKREKAQKLFMHALKMDPDFVDALTEFGIFSEEDKDIIQADYLYTRALTISPYHEKALVNRDRTLPLVEEIDQRYFSIIDSKVKKVMSIPKGNSALRRVMEETYYHHIYHTVAIEGNTLTLSEIRHILETRYAVPGKSLEEQNEVIGMHAAMKYINTTLVSRIGSVTISDVLEIHRRVLSYVDPVEAGRFRTTQVLVGHHIPPHPQDVEKQMQEFVQWLNSEEAMNLHPVEFAALAHYKLVYIHPFIDGNGRTSRLLMNLILMQAGYPPITIRKEQRSDYYHVLEAANEGDVRPFIRFIAKCTETTLDTLLFATTEYSVALPEAQP
notes: FICD (HYPE), human, residues 104-445; also called Gly299Ser; source: E. coli T7 Express lysY/Iq, purified (Ni-NTA, on-column Ulp1 cleavage, anion exchange, SEC)
Kd [4]: 9.5 µM

Binder: B9
binding result [6]: binds

binding result [2]: binds
B10: catalytically inactive, monomeric FICD^L258D-H363A (residues 104-445) (domain or fragment, human, UniProt Q9BVA6 104-445, looked up)
chain: LEARAALNQALEMKRQGKREKAQKLFMHALKMDPDFVDALTEFGIFSEEDKDIIQADYLYTRALTISPYHEKALVNRDRTLPLVEEIDQRYFSIIDSKVKKVMSIPKGNSALRRVMEETYYHHIYHTVAIEGNTLTLSEIRHILETRYAVPGKSDEEQNEVIGMHAAMKYINTTLVSRIGSVTISDVLEIHRRVLGYVDPVEAGRFRTTQVLVGHHIPPHPQDVEKQMQEFVQWLNSEEAMNLHPVEFAALAHYKLVYIAPFIDGNGRTSRLLMNLILMQAGYPPITIRKEQRSDYYHVLEAANEGDVRPFIRFIAKCTETTLDTLLFATTEYSVALPEAQP
notes: FICD (HYPE), human, residues 104-445; also called mFICD^H363A; source: E. coli T7 Express lysY/Iq, purified (Ni-NTA, on-column Ulp1 cleavage, anion exchange, SEC)

Reference: PMC6826200, “An oligomeric state‐dependent switch in the ER enzyme FICD regulates AMPylation and deAMPylation of BiP” (The EMBO Journal, 2019)
